Assay results taken from US20090186842, “Methods and compositions for inhibition of viral replication” (published 2009).

T1: GST-TIA-1 RRM3 (UniProt P31483 P31483:214-286)
T1 sequence: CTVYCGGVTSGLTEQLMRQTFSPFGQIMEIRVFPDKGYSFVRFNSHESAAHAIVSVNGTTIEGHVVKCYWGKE

T2: GST-TIA-1 RRM1 (UniProt P31483 P31483:7-83)
T2 sequence: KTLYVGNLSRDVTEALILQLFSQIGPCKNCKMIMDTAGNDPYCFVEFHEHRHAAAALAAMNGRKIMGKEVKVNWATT

T3: GST-TIAR RRM2 (UniProt Q01085 Q01085:97-175)
T3 sequence: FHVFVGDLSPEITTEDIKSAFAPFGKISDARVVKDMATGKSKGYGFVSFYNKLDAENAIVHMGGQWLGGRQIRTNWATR

T4: GST-TIA-1 RRM2 (UniProt P31483 P31483:106-184)
T4 sequence: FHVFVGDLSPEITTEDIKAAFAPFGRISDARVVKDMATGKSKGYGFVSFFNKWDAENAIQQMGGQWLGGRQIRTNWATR

T5: GST-TIAR RRM1 (UniProt Q01085 Q01085:9-85)
T5 sequence: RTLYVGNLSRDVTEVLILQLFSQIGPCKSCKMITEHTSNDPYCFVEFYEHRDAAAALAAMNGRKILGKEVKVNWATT

T6: GST-TIAR RRM3 (UniProt Q01085 Q01085:205-277)
T6 sequence: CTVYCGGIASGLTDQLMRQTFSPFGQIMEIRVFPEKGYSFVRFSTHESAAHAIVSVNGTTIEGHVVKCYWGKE

T7: TIARa (rTIAR) (Mus musculus, UniProt P70318 P70318:1-392)
T7 sequence: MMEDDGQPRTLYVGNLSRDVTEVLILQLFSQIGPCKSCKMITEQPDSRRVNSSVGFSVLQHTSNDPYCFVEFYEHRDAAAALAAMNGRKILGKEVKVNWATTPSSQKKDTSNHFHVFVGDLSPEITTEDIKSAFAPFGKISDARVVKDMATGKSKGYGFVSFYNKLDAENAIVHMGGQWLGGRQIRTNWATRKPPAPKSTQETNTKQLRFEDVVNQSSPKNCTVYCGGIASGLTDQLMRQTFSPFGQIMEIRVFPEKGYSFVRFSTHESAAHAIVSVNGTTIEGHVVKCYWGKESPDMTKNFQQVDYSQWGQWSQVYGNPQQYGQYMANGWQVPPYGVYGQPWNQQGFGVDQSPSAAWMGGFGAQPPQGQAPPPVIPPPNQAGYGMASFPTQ


Key:
GST-TIA-1 RRM3 = biological target: T1, GST-TIA-1 RRM3; test: EMSA; 500 nM protein; conditions: tags: GST fusion; label: 32P; stem-loop
GST-TIA-1 RRM1 = biological target: T2, GST-TIA-1 RRM1; test: EMSA; 500 nM protein; conditions: tags: GST fusion; label: 32P; stem-loop
GST-TIAR RRM2 = biological target: T3, GST-TIAR RRM2; test: EMSA; SD 5 nM, n=1.2; conditions: tags: GST fusion; label: 32P; stem-loop
GST-TIA-1 RRM2 = biological target: T4, GST-TIA-1 RRM2; test: EMSA; SD 15 nM, n=1.1; conditions: tags: GST fusion; label: 32P; stem-loop
GST-TIAR RRM1 = biological target: T5, GST-TIAR RRM1; test: EMSA; 200 nM protein; conditions: tags: GST fusion; label: 32P; stem-loop
GST-TIAR RRM3 = biological target: T6, GST-TIAR RRM3; test: EMSA; 200 nM protein; conditions: tags: GST fusion; label: 32P; stem-loop
TIARa (rTIAR) = biological target: T7, TIARa (rTIAR); test: EMSA; 5-90 nM protein, 0.2 nM RNA, 1 mM MgCl2, 30 mM KCl, RT; conditions: tags: C-terminal His6; label: 32P; stem-loop; AU-rich loops L1, L2, L3

Binder	binding result (GST-TIA-1 RRM3)	binding result (GST-TIA-1 RRM1)	Kd (GST-TIAR RRM2) [nM]	Kd (GST-TIA-1 RRM2) [nM]	binding result (GST-TIAR RRM1)	binding result (GST-TIAR RRM3)	binding result (TIARa (rTIAR))
WNV 3'(-)SL RNA with 5' CCC (ssRNA) RNA: CCCCAGCUCGCACCGUGUUAAUUGUUGUUAAUCCUCACAAACACUACUAAGUUUGUCAGCUCACACAGGCGAACUACU	no binding	no binding	15	112	no binding	no binding	–
WNV3'(-)SL RNA (ssRNA) RNA: CAGCUCGCACCGUGUUAAUUGUUGUUAAUCCUCACAAACACUACUAAGUUUGUCAGCUCACACAGGCGAACUACU	–	–	–	–	–	–	binds
